The numbers were not newly measured in paper PMC10065799, “High-throughput profiling of sequence recognition by tyrosine kinases and SH2 domains using bacterial peptide display” (eLife, 2023), which cites them from elsewhere.

For the series, the target named is PD1 phosphosite peptide (Homo sapiens) (UniProt Q15116).

What is called Kd is a measure of binding affinity in units of concentration. SHP2 N-SH2 (from UniProt Q06124): the Kd is 2 µM.
